Data published in patent US20130078247A1 (Boehringer Ingelheim, published 2013).
Read-outs that look alike come from different tables or passages of the source. Each block holds one binder with its values, some of them ahead of it.

Experiments:
human Ang2 [1] = target: T1, human Ang2 (human, UniProt O15123 19-496, limits assumed); assay: competition ELISA hAng2/hTie2-Fc
T1 construct: also called hAng2; human Angiopoietin2
T1 sequence (looked up): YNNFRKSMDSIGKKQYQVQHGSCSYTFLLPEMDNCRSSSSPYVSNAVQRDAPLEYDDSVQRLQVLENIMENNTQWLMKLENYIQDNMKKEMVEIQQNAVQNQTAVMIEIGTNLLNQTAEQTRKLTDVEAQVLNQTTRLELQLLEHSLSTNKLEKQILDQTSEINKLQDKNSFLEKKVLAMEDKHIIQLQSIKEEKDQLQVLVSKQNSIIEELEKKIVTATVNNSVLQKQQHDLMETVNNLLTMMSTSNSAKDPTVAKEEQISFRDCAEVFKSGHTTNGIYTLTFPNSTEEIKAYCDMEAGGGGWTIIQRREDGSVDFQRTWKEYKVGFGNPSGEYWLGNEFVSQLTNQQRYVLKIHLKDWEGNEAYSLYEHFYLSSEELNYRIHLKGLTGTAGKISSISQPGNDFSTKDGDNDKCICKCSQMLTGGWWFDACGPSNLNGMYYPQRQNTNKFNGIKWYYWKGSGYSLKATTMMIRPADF
Experimental: (§1) This assay is also performed after incubation of the VHH with 0.5 μM human serum albumin.

human Ang2 [2] = target: T1, human Ang2; assay: competition ELISA hAng2/hTie2-Fc, with 0.5 uM HSA [continued]
Experimental: as §1

mouse Ang2 [3] = target: T2, mouse Ang2 (mouse, UniProt O35608 19-496, limits assumed); assay: competition ELISA: mAng2 binding to mTie2
T2 construct: also called mAng2
T2 sequence (looked up): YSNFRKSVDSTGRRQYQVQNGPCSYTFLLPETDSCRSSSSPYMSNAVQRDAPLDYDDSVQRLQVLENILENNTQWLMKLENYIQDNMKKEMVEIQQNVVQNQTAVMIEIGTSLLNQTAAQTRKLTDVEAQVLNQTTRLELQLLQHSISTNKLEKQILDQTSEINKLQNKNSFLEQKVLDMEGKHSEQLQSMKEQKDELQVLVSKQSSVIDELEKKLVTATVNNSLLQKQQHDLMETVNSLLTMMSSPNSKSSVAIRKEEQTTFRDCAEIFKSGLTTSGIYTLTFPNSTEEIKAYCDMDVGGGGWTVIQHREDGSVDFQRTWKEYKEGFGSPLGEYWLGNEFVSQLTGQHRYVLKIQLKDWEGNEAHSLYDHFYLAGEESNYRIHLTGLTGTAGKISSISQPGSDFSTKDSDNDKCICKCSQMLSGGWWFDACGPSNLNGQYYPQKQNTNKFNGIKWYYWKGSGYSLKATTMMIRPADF
Experimental: as §1

cynomolgus Ang2 [4] = target: T3, cynomolgus Ang2 (cynomolgus); assay: competition ELISA: cAng2 binding to cTie2
T3 construct: also called cAng2; cyno Ang2
Experimental: as §1

mouse Ang2 [5] = target: T2, mouse Ang2; assay: competition ELISA: mAng2 binding to mTie2; remark: listed apart in the source
Experimental: as §1

cynomolgus Ang2 [6] = target: T3, cynomolgus Ang2; assay: competition ELISA: cAng2 binding to cTie2; remark: listed apart in the source
Experimental: as §1

mouse Ang2 [7] = target: T2, mouse Ang2; assay: competition ELISA mAng2/mTie2
Experimental: as §1

[8] = target: T4, mouse DLL4, full length, overexpressed on CHO or HEK293 cells (mouse, UniProt Q9JI71 27-686); assay: FMAT competition: labelled hNotch1-Fc on CHO-mDLL4 cells
T4 construct: whole, on cells; also called CHO-mDLL4; CHO-mDII4
Text: (§2) All calculations are based on the FL1_total signal which comprises the average of the fluorescence per well times the number of counts per well.

[9] = target: T5, human DLL4, full length, overexpressed on CHO or HEK293 cells (human, UniProt Q9NR61 27-685); assay: FMAT competition: labelled hNotch1-Fc on CHO-hDLL4 cells
T5 construct: also called CHO-hDLL4; CHO-hDII4
Text: as §2

[10] = target: T6, recombinant human DLL4 extracellular domain, C-terminally His-tagged (R&D Systems) (human, UniProt Q9NR61 25-522, biotinylated in the competition assays (sites not given)); assay: periplasmic extract; hDLL4 ELISA
T6 construct: also called rhDLL4; hDLL4; not shown: C-terminal His tag
T6 sequence (Q9NR61 25-522): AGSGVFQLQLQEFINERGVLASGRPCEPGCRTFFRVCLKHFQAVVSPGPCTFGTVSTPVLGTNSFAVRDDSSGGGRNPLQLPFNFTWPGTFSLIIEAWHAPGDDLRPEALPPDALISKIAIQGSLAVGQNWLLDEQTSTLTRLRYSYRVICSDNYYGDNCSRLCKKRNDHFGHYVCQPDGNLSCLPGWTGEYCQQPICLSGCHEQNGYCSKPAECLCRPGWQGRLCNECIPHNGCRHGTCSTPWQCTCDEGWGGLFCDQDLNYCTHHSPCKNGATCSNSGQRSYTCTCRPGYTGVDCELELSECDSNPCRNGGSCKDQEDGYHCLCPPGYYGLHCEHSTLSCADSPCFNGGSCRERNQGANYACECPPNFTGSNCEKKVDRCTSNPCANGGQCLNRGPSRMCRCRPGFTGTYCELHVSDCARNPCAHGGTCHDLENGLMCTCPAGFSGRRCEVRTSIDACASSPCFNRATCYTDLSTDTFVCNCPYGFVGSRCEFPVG

[11] = target: T6, recombinant human DLL4 extracellular …; assay: periplasmic extract; Biacore off-rate
[12] = target: T6, recombinant human DLL4 extracellular …; assay: periplasmic extract; hDLL4/hNotch1 AlphaScreen
Experimental: To this mixture, the acceptor beads and the streptavidin donor beads are added and further incubated for 1 hour at room temperature. Fluorescence is measured by reading plates on the Envision Multilabel Plate reader (Perkin Elmer, Waltham, Mass., USA) using an excitation wavelength of 680 nm and an emission wavelength of 520 nm.

[13] = target: T6, recombinant human DLL4 extracellular …; assay: binding ELISA on coated rhDLL4
[14] = target: T7, recombinant human DLL1 (Alexis) (human, UniProt O00548 18-545, limits assumed); assay: rhDLL1/rhJAG1 binding ELISA
T7 construct: also called hDLL1; rhDLL1
T7 sequence (looked up): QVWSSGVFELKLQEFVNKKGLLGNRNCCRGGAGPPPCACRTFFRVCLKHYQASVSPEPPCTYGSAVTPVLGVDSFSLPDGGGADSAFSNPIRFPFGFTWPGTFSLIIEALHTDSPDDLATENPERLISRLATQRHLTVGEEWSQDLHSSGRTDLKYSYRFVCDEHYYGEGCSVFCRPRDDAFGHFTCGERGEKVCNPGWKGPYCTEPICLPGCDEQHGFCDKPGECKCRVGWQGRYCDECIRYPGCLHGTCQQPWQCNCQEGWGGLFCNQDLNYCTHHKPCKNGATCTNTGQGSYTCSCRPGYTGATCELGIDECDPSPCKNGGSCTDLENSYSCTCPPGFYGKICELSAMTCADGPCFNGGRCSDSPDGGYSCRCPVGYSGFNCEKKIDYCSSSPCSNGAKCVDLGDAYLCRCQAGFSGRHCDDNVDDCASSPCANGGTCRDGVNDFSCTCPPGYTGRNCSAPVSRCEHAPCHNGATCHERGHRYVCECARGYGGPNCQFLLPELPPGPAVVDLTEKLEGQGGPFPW

[15] = target: T8, recombinant human Jagged-1 (Alexis) (human, UniProt P78504 34-1067, limits assumed); assay: rhDLL1/rhJAG1 binding ELISA
T8 construct: also called hJagged-1; hJAG1

[16] = target: T9, recombinant mouse DLL4 extracellular domain, C-terminally His-tagged (R&D Systems) (mouse, UniProt Q9JI71 27-525); assay: binding ELISA on coated rmDLL4
T9 construct: range 1-525; also called rmDLL4; mDLL4; not shown: C-terminal His tag
T9 sequence (Q9JI71 27-525 limits assumed): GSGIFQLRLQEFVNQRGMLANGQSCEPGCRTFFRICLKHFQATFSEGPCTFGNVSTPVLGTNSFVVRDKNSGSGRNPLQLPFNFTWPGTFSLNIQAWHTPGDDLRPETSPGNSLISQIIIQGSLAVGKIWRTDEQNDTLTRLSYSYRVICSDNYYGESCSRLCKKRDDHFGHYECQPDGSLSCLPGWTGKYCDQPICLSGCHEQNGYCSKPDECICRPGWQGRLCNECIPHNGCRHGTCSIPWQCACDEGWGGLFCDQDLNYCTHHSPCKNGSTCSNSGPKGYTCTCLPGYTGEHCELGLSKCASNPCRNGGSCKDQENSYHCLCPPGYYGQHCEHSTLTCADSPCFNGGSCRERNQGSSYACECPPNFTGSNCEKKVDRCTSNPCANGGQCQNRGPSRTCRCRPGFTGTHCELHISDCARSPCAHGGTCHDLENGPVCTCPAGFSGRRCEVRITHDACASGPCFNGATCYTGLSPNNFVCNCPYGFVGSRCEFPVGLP
Experimental: In order to determine cross-reactivity to mouse DII4 a binding ELISA is performed. […] Wells are blocked with a casein solution (1% in PBS). VHHs are applied as dilution series and binding is detected using a mouse anti-myc (Roche) and an anti-mouse-AP conjugate (Sigma, St Louis, Mo., USA) (FIG. 7).

- IC50 (read off the curve) (mouse Ang2 [7]): ~9 nM
- IC50 (read off the curve) (human Ang2 [1]): ~6 nM
- IC50 (read off the curve) (human Ang2 [2]): ~6 nM
B3: 00050 (VHH)
VHH: EVQLVESGGGLVQPGGSLRLSCAASGFTFDDYALGWFRQAPGKEREGVSCIRCSDGSTYYADSVKGRFTISSDNSKNTVYLQMNSLRPEDTAVYYCAASIVPRSKLEPYEYDAWGQGTLVTVSS

- binding result [8]: binds
B4: 78B04 (VHH)
VHH: EVQLVESGGGLVQAGGSLRLSCAASGRTFSNYIMGWFRQAPGKEREFVAGISRYGDYTYYADSVKGRFTISRDNVKNTVYLRMNSLKPDDTAVYYCAANEGYCSGYGCYEDSGQYDYWGQGTQVTVSS
notes: also called DLLBII78B04

- binding result [8]: binds
- binding result [9]: binds
B5: 106H01 (VHH)
VHH: EVQLVESGGGLVQAGGSLRLSCAASGSTFSNYAMGWYRQAPGKQRELVVGISSDGSTHYADSAKGRFTISRDDAKNTVYLQMNSLKTEDTAVYYCYVPVKVAGLEYAYWGQGTQVTVSS
notes: also called DLLBII106H01

- % inhibition [10]: 82%
- koff [11]: 0.00056 s⁻¹
- % inhibition [12]: 84%
B6: DLLBII17C01 (VHH)
VHH: EVQLVESGGGLVQAGGSLRLSCAASGFTFDDYPIGWLRQAPGKEREGVSCISSSDDSTYYADSVKGRFTISSNNAKNTVYLQMNSLKPEDTAVYYCAVRLFSGGCAVVAGTSWADFGSSGQGTQVTVSS
notes: also called DLLBII17C1; not shown: C-terminal c-myc and His6 tags

- EC50 (read off the curve) [13]: ~0.7 nM
- binding result [14]: no binding
- binding result [15]: no binding
- EC50 (read off the curve) [16]: ~0.9 nM
B7: DLLBII133A09 (VHH)
VHH: EVQLVESGGGLVQPGGSLRLSCAASGFTFGSYDMSWVRRSPGKGPEWVSAINSGGGSTYYADYVKGRFTISRDNAKNTLYLQMNSLKPEDTAVYYCAADRYIWARQGEYWGAYAYDYWGQGTQVTVSS
notes: not shown: C-terminal c-myc and His6 tags

The remaining lines, values behind:

B1: 00042 (VHH)
VHH: EVQLVESGGGLVQPGGSLRLSCAASGFTLDDYAIGWFRQAPGKEREGVSSIRDNDGSTYYADSVKGRFTISSDNSKNTVYLQMNSLRPEDTAVYYCAAVPAGRLRFGEQWYPLYEYDAWGQGTLVTVSS
- IC50 (read off the curve) (human Ang2 [1]): ~0.6 nM
- IC50 (read off the curve) (human Ang2 [2]): ~0.6 nM

B2: 00042 (VHH)
VHH: EVQLVESGGGLVQPGGSLRLSCAASGFTLDDYAIGWFRQAPGKEREGVSSIRDNDGSTYYADSVKGRFTISSDNSKNTVYLQMNSLRPEDTAVYYCAAVPAGRLRFGEQWYPLYEYDAWGQGTLVTVSS
- IC50 (read off the curve) (mouse Ang2 [3]): ~2 nM
- IC50 (read off the curve) (cynomolgus Ang2 [4]): ~0.5 nM
- IC50 (read off the curve) (mouse Ang2 [5]): ~1 nM
- IC50 (read off the curve) (cynomolgus Ang2 [6]): ~0.8 nM

B8: 00045 (VHH)
VHH: EVQLVESGGGLVQPGGSLRLSCAASGFALDYYAIGWFRQAPGKEREGVSCISSSDGITYYADSVKGRFTISRDNSKNTVYLQMNSLRPEDTAVYYCATDSGGYIDYDCMGLGYDYWGQGTLVTVSS
- IC50 (read off the curve) (cynomolgus Ang2 [4]): ~0.2 nM
- IC50 (read off the curve) (mouse Ang2 [5]): ~0.2 nM
